Experimental findings from the Human Domainome abundance scans (Beltran et al. 2025) are described below.

± gives the uncertainty stated by the source.

A short description of the data set: abundance fitness (aPCA) (normalised: wild type 0, dead -1); higher = more abundant; growth selection in yeast, the domain comes from the species named. The following applies: Saccharomyces cerevisiae (strain ATCC 204508 / S288c).
The substance “E3 ubiquitin-protein ligase RSP5 E344P, P39940” returned an abundance fitness of -0.428 ± 0.071.
In the case of “E3 ubiquitin-protein ligase RSP5 E344Q, P39940”, the abundance fitness is -0.081 ± 0.053.
Consider “E3 ubiquitin-protein ligase RSP5 E344R, P39940”, for which the abundance fitness was -0.256 ± 0.047.
The figure for “E3 ubiquitin-protein ligase RSP5 E344S, P39940” is -0.168 ± 0.048.
The figure for “E3 ubiquitin-protein ligase RSP5 E344T, P39940” is -0.088 ± 0.051; for “E3 ubiquitin-protein ligase RSP5 E344V, P39940” it is -0.308 ± 0.054.
The figure for “E3 ubiquitin-protein ligase RSP5 E344W, P39940” is -0.338 ± 0.046; for “E3 ubiquitin-protein ligase RSP5 F341A, P39940” it is -0.072 ± 0.049.
In the case of “E3 ubiquitin-protein ligase RSP5 F341C, P39940”, the abundance fitness worked out at 0.051 ± 0.069.
“E3 ubiquitin-protein ligase RSP5 F341E, P39940” yielded an abundance fitness of 0.068 ± 0.064.
As for “E3 ubiquitin-protein ligase RSP5 F341G, P39940”, the abundance fitness is -0.284 ± 0.044.
“E3 ubiquitin-protein ligase RSP5 F341I, P39940” registered an abundance fitness of -0.027 ± 0.092.
The figure for “E3 ubiquitin-protein ligase RSP5 F341N, P39940” is 0.189 ± 0.11; for “E3 ubiquitin-protein ligase RSP5 F341P, P39940” it is -0.669 ± 0.082.
“E3 ubiquitin-protein ligase RSP5 F341R, P39940” displayed an abundance fitness of -0.053 ± 0.045.
To “E3 ubiquitin-protein ligase RSP5 F341S, P39940” belongs -0.066 ± 0.06; to “E3 ubiquitin-protein ligase RSP5 F341T, P39940”, 0.003 ± 0.067; to “E3 ubiquitin-protein ligase RSP5 F341V, P39940”, 0.019 ± 0.043.
To “E3 ubiquitin-protein ligase RSP5 F341W, P39940” belongs -0.064 ± 0.056; to “E3 ubiquitin-protein ligase RSP5 F341Y, P39940”, 0.048 ± 0.054; to “E3 ubiquitin-protein ligase RSP5 F349A, P39940”, -0.708 ± 0.047.
To “E3 ubiquitin-protein ligase RSP5 F349G, P39940” belongs -0.703 ± 0.043; to “E3 ubiquitin-protein ligase RSP5 F349I, P39940”, -0.814 ± 0.1.
For “E3 ubiquitin-protein ligase RSP5 F349K, P39940”, the abundance fitness is -0.837 ± 0.13.
The figure for “E3 ubiquitin-protein ligase RSP5 F349L, P39940” is -0.648 ± 0.055.
To “E3 ubiquitin-protein ligase RSP5 F349M, P39940” belongs -0.662 ± 0.15; to “E3 ubiquitin-protein ligase RSP5 F349P, P39940”, -0.804 ± 0.08; to “E3 ubiquitin-protein ligase RSP5 F349R, P39940”, -0.937 ± 0.051.
To “E3 ubiquitin-protein ligase RSP5 F349S, P39940” belongs -0.83 ± 0.057.
“E3 ubiquitin-protein ligase RSP5 F349V, P39940” came in with an abundance fitness of -0.739 ± 0.044.
“E3 ubiquitin-protein ligase RSP5 F349W, P39940” gave an abundance fitness of -0.008 ± 0.052.
The figure for “E3 ubiquitin-protein ligase RSP5 F349Y, P39940” is 0.086 ± 0.072.
To “E3 ubiquitin-protein ligase RSP5 G324A, P39940” belongs 0.004 ± 0.084; to “E3 ubiquitin-protein ligase RSP5 G324C, P39940”, 0.204 ± 0.12; to “E3 ubiquitin-protein ligase RSP5 G324D, P39940”, 0.06 ± 0.065.
The figure for “E3 ubiquitin-protein ligase RSP5 G324E, P39940” is 0.216 ± 0.071; for “E3 ubiquitin-protein ligase RSP5 G324F, P39940” it is -0.48 ± 0.45.
With “E3 ubiquitin-protein ligase RSP5 G324K, P39940”, the abundance fitness is 0.284 ± 0.14.
To “E3 ubiquitin-protein ligase RSP5 G324L, P39940” belongs -0.328 ± 0.13; to “E3 ubiquitin-protein ligase RSP5 G324M, P39940”, 0.105 ± 0.12; to “E3 ubiquitin-protein ligase RSP5 G324N, P39940”, 0.182 ± 0.12.
To “E3 ubiquitin-protein ligase RSP5 G324P, P39940” belongs -0.178 ± 0.1; to “E3 ubiquitin-protein ligase RSP5 G324R, P39940”, -0.099 ± 0.066.
For the substance “E3 ubiquitin-protein ligase RSP5 G324S, P39940”, the abundance fitness was 0.097 ± 0.092.
To “E3 ubiquitin-protein ligase RSP5 G324T, P39940” belongs -0.04 ± 0.11; to “E3 ubiquitin-protein ligase RSP5 G324V, P39940”, 0.005 ± 0.11.
The figure for “E3 ubiquitin-protein ligase RSP5 G324W, P39940” is -0.344 ± 0.086; for “E3 ubiquitin-protein ligase RSP5 G325A, P39940” it is -0.046 ± 0.051.
As to “E3 ubiquitin-protein ligase RSP5 G325C, P39940”, the abundance fitness is -0.008 ± 0.071.
The figure for “E3 ubiquitin-protein ligase RSP5 G325D, P39940” is 0.051 ± 0.051; for “E3 ubiquitin-protein ligase RSP5 G325E, P39940” it is -0.031 ± 0.067.
The figure for “E3 ubiquitin-protein ligase RSP5 G325F, P39940” is -0.132 ± 0.065; for “E3 ubiquitin-protein ligase RSP5 G325H, P39940” it is -0.035 ± 0.099; for “E3 ubiquitin-protein ligase RSP5 G325I, P39940” it is 0.018 ± 0.092.
The figure for “E3 ubiquitin-protein ligase RSP5 G325L, P39940” is 0.029 ± 0.11.
“E3 ubiquitin-protein ligase RSP5 G325M, P39940” came in with an abundance fitness of 0.137 ± 0.095.
The figure for “E3 ubiquitin-protein ligase RSP5 G325P, P39940” is -0.252 ± 0.072; for “E3 ubiquitin-protein ligase RSP5 G325Q, P39940” it is -0.151 ± 0.1.
On to “E3 ubiquitin-protein ligase RSP5 G325R, P39940”, for which the abundance fitness was -0.063 ± 0.047.
“E3 ubiquitin-protein ligase RSP5 G325S, P39940”: the abundance fitness came out at 0.069 ± 0.094.
For the substance “E3 ubiquitin-protein ligase RSP5 G325T, P39940”, the abundance fitness was found to be 0.071 ± 0.097.
To “E3 ubiquitin-protein ligase RSP5 G325V, P39940” belongs -0.021 ± 0.045; to “E3 ubiquitin-protein ligase RSP5 G325W, P39940”, -0.141 ± 0.099; to “E3 ubiquitin-protein ligase RSP5 G325Y, P39940”, -0.057 ± 0.083.
To “E3 ubiquitin-protein ligase RSP5 G329A, P39940” belongs 0.037 ± 0.044; to “E3 ubiquitin-protein ligase RSP5 G329C, P39940”, 0.077 ± 0.082; to “E3 ubiquitin-protein ligase RSP5 G329D, P39940”, 0.149 ± 0.066.
To “E3 ubiquitin-protein ligase RSP5 G329E, P39940” belongs 0.096 ± 0.055.
“E3 ubiquitin-protein ligase RSP5 G329F, P39940” yielded an abundance fitness of -0.026 ± 0.091.
To “E3 ubiquitin-protein ligase RSP5 G329H, P39940” belongs -0.046 ± 0.083.
“E3 ubiquitin-protein ligase RSP5 G329L, P39940” displayed an abundance fitness of -0.129 ± 0.047.
In turn, “E3 ubiquitin-protein ligase RSP5 G329M, P39940” yielded an abundance fitness of 0.061 ± 0.098.
To “E3 ubiquitin-protein ligase RSP5 G329N, P39940” belongs 0.1 ± 0.069.
As to “E3 ubiquitin-protein ligase RSP5 G329P, P39940”, the abundance fitness is -0.113 ± 0.052.
For “E3 ubiquitin-protein ligase RSP5 G329Q, P39940”, the abundance fitness came to 0.18 ± 0.096.
On to “E3 ubiquitin-protein ligase RSP5 G329R, P39940”, for which the abundance fitness was -0.021 ± 0.043.
The figure for “E3 ubiquitin-protein ligase RSP5 G329S, P39940” is 0.103 ± 0.054; for “E3 ubiquitin-protein ligase RSP5 G329T, P39940” it is 0.063 ± 0.071.
“E3 ubiquitin-protein ligase RSP5 G329V, P39940” showed an abundance fitness of -0.006 ± 0.042.
To “E3 ubiquitin-protein ligase RSP5 G329W, P39940” belongs -0.139 ± 0.058; to “E3 ubiquitin-protein ligase RSP5 G329Y, P39940”, -0.337 ± 0.39; to “E3 ubiquitin-protein ligase RSP5 G331A, P39940”, -0.034 ± 0.042.
As to “E3 ubiquitin-protein ligase RSP5 G331C, P39940”, the abundance fitness is -0.095 ± 0.09.
“E3 ubiquitin-protein ligase RSP5 G331D, P39940” displayed an abundance fitness of 0.059 ± 0.087.
To “E3 ubiquitin-protein ligase RSP5 G331E, P39940” belongs -0.127 ± 0.049; to “E3 ubiquitin-protein ligase RSP5 G331F, P39940”, -0.126 ± 0.084; to “E3 ubiquitin-protein ligase RSP5 G331H, P39940”, -0.009 ± 0.15.
The figure for “E3 ubiquitin-protein ligase RSP5 G331I, P39940” is -0.071 ± 0.068.
The figure for “E3 ubiquitin-protein ligase RSP5 G331K, P39940” is -0.121 ± 0.046.
As for “E3 ubiquitin-protein ligase RSP5 G331L, P39940”, the abundance fitness is -0.095 ± 0.046.
The figure for “E3 ubiquitin-protein ligase RSP5 G331M, P39940” is -0.02 ± 0.055.
